Measured values: patent US20220213196A1 (GRITSTONE BIO, published 2022)
One block for each binder: values may come before it.

Tests used:
[1] = molecular target: T1, HLA-B*35:01_… (HLA-PEPTIDE target G5), recombinant soluble complex (human, UniProt P01889 25-297 at identity 0.94); P61769 21-119, enzymatically biotinylated (BirA) for screening and functional assays); assay: BLI Octet, pHLA on streptavidin sensor, 1:1 fit
[2] = molecular target: T1, HLA-B*35:01_… (HLA-PEPTIDE target G5), …; assay: BLI (Octet), biotinylated pHLA on streptavidin sensors; printed under the Fab sensorgrams, the sheet does not say which format or fit gave the bivalent value [cont'd]
[3] = molecular target: T2, HLA-A*02:01_… (HLA-PEPTIDE target G8), recombinant soluble complex (human, UniProt P04439 25-297 at identity 0.94); P61769 21-119, enzymatically biotinylated (BirA) for screening and functional assays); assay: BLI Octet, pHLA on streptavidin sensor, 1:1 fit
T2 construct: Also crystallised with Fab G8-P1C11

[4] = molecular target: T2, HLA-A*02:01_… (HLA-PEPTIDE target G8), …; assay: BLI (Octet), biotinylated pHLA on streptavidin sensors; printed under the Fab sensorgrams, the sheet does not say which format or fit gave the bivalent value [cont'd]

- Kd [1]: 85.9 nM
- koff [1]: 0.0158 s⁻¹
- Apparent KD (bivalent) [2]: 0.378 nM
B1: Fab G5-P1C12 (Fab, V domains shown)
VH: QVQLVQSGAEVKKPGSSVKVSCKASGGTFSNFGVSWLRQAPGQGLEWMGGIIPILGTANYAQKFQGRVTITADESTSTAYMELSSLRSEDTAVYYCATPTNSGYYGPYYYYGMDVWGQGTTVTVSS
VL: DIQMTQSPSSLSASVGDRVTITCRASQSISSWLAWYQQKPGKAPKLLIYAASTLQSGVPSRFSGSGSGTDFTLTISSLQPEDFATYYCQQSYSIPLTFGGGTKVEIK
notes: Fab from HEK293

- Kd [3]: 530 nM
- koff [3]: 0.0528 s⁻¹
- kon [3]: 99700 M⁻¹ s⁻¹
- Apparent KD (bivalent) [4]: 6.65 nM
B2: Fab G8-P5G08 (Fab, V domains shown)
VH: QVQLVQSGAEVKKPGASVKVSCKASGYTFTSNYMHWVRQAPGQGLEWMGWMNPNSGNTGYAQKFQGRVTMTRDTSTSTVYMELSSLRSEDTAVYYCARGLYGDYFLYYGMDVWGQGTTVTVSS
VL: not shown
notes: Fab from HEK293; also called R3G8-P5G08
